Reference: the domain aggregation screens of Martell et al. (2025)

Experiment: soluble fraction after stress (log2 fold change); higher = more stays soluble; pooled small domains, quantitative proteomics
Conditions: stress: 50 degC
Procedure, shortened: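 Pooled custom libraries of small protein domains were each held under stress at 50°C. The read-out, high-throughput quantitative proteomics, tracked how much of each protein stayed soluble. This is reported as a base-two log fold change used to indicate aggregation propensity. Higher values mean more protein remains in solution.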

Row | Sequence | soluble fraction (log2)
1 | HMQERTVVKGVVVQVSRDEAYVDIGYKQEIPVSKRDLAVPAPDDARDVVKVGDEIDVYIKSLGGDNGG | -0.00098
2 | HMKHAIKEKIRNEYVHGYLNEEGYRVMPTLDELIRKYEVPASSTYRASSKEGWKKQKEAFLEHLRGEIDA | -0.139
3 | HMTYADTRDLLIRRGMELLTEQGIAATSIERVLQSTGIPKGSFYHYFATKHDFTLAVMDAYHHY | -0.0315
4 | HMSSYTQEDVRSGILYMAQLKPRNIEEFVSTLAFSKDDIMDNLSFLVDEGFLKFDADTDTYFNPVPL | -0.214
5 | HMKQVSDTGAIDAAIREVMDANPDKVAEYRSGKDKLFGFFVGQIMRAMAGKAAPVVVNDRLKALLD | 0.355
6 | HMKELAADFSRRIINARTSKGWSQADLGQRMAETINVIKSAESGKPPTDAVVKKFETVLGVILM | -0.641
7 | HMTIGEALLNLRKQLGLNQTEMAANVVSTSFYSKVERNIHDIGTKDLLQILNKHQINATYFFENLN | -1.91
8 | HMNSIQEQIEKYVYSLAPVTIERYESLKNGDIEDIEFEKLRKSISSKIINEKIDNKKQVAILSHLKKMYSD | 0.0107
9 | HMAFKNGLLQTSKKVTLVRKVDGVTMRFDSLRAASVFLGRNKGYLSNVIKNGRTLDNYEIVVGE | -0.991
10 | HMDAKQLQSLKNNNEQLAGFIVRLTNFYEGLSPDIDAELSKLRSHLSGKVDYTLATVSINKINQLFMLEP | -2.6
11 | HMSALTDQQQRVLELVASGLVYKEVAAALSISEPTVKYHMGNILTRLHVKNRAQAIAAARQQGLL | -1.21
12 | HMGRMSLDEAKAVILPIGEHKGHTMGEVLAIKPGLIDFYASQKFNSGKYPYLKEAAQVILENQG | -0.109
13 | HMAITLEVAKKHLEMWLEAESEVAINQSYTIGGKSFTRANLAEIRKQIEYWSNKVAELENLA | 0.0438
14 | HMSHSDMEEWTDAVRSRRKKLGLTQVQIARRLGVTSHHFSQIESGRTIPSASLQIEIDRLLKNWND | -0.963
15 | HMRELSDFEKLLFTTTLERKMINLAMLLTRSNKADSKDLIQDSYLKAIENQVQFNGNNIDAWVITILKNTF | 0.139
16 | HMVDPAEASKRAREYLDALPADDLKDVIRQFSATLAEGSVVLGYFQRSGLKSKVVKTALEQFVASTILSK | -0.167
17 | HMQALTLVGQDAKDAKAALDAVDIQPAKTETDRYIYVLTEQQAQELGRTVDALYGVEGSLTLILEV | 0.0301
18 | HMILNPQELGERIRKLRLKRNKTQSYFADMLYISSSYLALIESGKRVPNLDLLIHIAKFTDVTLDYLVFG | -1.22
19 | HMKLSKKVTDFLAQMPSKSISPKMLANNLGLADDAGDYKHLLKTIAQLEESKAIEVTAAGNIALPQPE | 0.0358

Row | Sequence | soluble fraction (log2)
20 | HMIENGILELKGKTGVAQTVLRPSGKVLIDDEIYDAVALTGYIEKADKVLVTKVEATQLYVEK | 0.0576
21 | HMDFKKKIIESWADIAETLRGLTVDSNISDWTTKQKNAYETLADKAELAGLSIADLNSILVELGYM | -0.0868
22 | HMQDTYLYPVQHNGKVRLQVELPAKGLPEDLVRLALAHPKVVEWLNGRIPTKTIAVPGRIINMVLPNQ | -0.134
23 | HMTYAQQIGARIAFLRRLKGLTLAELAERVNKHKSTISKYESGQIIIDIESLKEVADALGVDVAQIVE | -0.0214
24 | HMLEKVLDNHIHKLRLQHKISQQELADAIGVSRKTISTVETGRFTPSVVIALKIAAHFSVSVEQVFTL | -0.964
25 | HMLERKPVLVASRDLPALAVIGKDDLSVELLRTAPVGSYDRPEALLGKRVWVAVPAGSILSAATLEP | -0.103
26 | HMQQEAVSGKLLQLDLAKKEGRLSTDLGREVLFHIPKPELFVHLSVGQRIIIKLDAGQEAVGV | -0.0409
27 | HMEDELFSVARAAFPEYASKIHMNYGSTVQSIARQSGVLTVSETKQLNENQQISYLEYSNGAVVLALA | -0.0402
28 | HMKREELTQQTKQNLREAFWSLYIQKPIEKITVKEITDIAGYNRGTFYLYYKDTYDLLAKIE | -0.149
29 | HMSFNGTILSNYQKTYPNLAKFTYDQANDALVYEGNFIKLNGYGLSRIDPVFFNMNPDEIFIFIKNG | -3.51
30 | HMQITAPVQKIDGVEYYMHKVEQGQTLYSISKLYNVGVKEIQKANQLGTEGIQLGQVLKVRKGG | -0.0136
31 | HMDLLVWRVADEDAGERIDKLVVDSLDDVSRTAVQQWIKDGLVTVNGKTVKPNYKAAAGDEVAVSVPEPE | 0.149
32 | HMDEQVETLKNLISELPKEQLEVLVMRHYEDLSFKEISEKTGVSINTALGRMRYALINIRKLMKENN | -0.223
33 | HMTRVANIPYSEFLKLVETDKINDVSMVGKTISGHLDDGTKFSTYTPPNDPNLIDKLSKHNVIIKAGPE | 0.0971
34 | HMKLNEQSMQVIDRIVDRHRGRPGPVKLMLHDVQKELGYIPFEAMEKIAAASGVSADEVYGVVTFYTQFTT | -0.0825
35 | HMETKERDEQFLEMIRQNEGIIFKVASFYVDKEHPIGDLYQEVVLNLWKGYPSFRGESKYSTWIYRIALNT | -0.0833
36 | HMTTHERHEIIELLRQVGDPMRPKEISEALGKPSGAIRFLLSKLTEEGAIKKTGYGQYTYIP | -0.359
37 | HMSHPNAPLTPEGRRRLAVLIVEDGWTIRRAAERFQVSPATASKWARRYRAGESLTDRSSRP | -1.58
38 | HMDAVTPVLSRIRDARFKRMVLPGDEIEISVTLIDTIGKFFNLSGQIRNKDKISLTVNFALALV | -0.0104
